Assay results: US20220033784A1 (priority 2020, published 2022)
Residue numbers refer to the chain shown, from its start. Names and notes keep the numbering of the source.

Assays:
[1] = target: human intermediate-affinity IL-2 receptor complex, IL-2 CD122/CD132 (β/γ), on cells (human) (UniProt P14784)
[2] = target: human high-affinity IL-2 receptor complex, IL-2 CD25/CD122/CD132 (α/β/γ), on cells (human) (UniProt P01589)
[3] = target: T1, mouse high-affinity IL-2R (IL-2Rα/CD25 + IL-2Rβ + IL-2Rγ) on murine splenocytes (Treg cells, CD3+CD4+CD25+Foxp3+) (mouse) (UniProt P01590)
T1 sequence 1: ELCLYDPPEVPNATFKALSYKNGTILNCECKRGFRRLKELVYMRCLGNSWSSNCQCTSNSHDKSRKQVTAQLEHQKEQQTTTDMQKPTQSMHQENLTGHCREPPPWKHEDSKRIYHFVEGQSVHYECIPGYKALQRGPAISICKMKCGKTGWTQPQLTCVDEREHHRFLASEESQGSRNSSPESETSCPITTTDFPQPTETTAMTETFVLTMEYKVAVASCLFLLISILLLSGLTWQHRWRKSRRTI
T1 sequence 2: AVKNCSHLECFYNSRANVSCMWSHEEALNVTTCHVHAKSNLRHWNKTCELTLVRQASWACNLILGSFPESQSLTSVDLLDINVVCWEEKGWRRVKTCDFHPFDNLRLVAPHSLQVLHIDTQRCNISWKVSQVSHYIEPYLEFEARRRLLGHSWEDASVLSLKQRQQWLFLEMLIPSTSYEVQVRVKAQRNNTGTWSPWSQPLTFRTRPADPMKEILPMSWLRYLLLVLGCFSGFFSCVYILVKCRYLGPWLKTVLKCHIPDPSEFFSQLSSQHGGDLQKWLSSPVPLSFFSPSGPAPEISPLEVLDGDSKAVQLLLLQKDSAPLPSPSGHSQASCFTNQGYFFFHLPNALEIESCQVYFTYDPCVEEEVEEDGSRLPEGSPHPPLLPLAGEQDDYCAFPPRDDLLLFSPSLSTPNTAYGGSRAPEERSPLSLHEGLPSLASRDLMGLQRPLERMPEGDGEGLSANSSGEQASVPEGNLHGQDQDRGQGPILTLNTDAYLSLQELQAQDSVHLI
T1 sequence 3: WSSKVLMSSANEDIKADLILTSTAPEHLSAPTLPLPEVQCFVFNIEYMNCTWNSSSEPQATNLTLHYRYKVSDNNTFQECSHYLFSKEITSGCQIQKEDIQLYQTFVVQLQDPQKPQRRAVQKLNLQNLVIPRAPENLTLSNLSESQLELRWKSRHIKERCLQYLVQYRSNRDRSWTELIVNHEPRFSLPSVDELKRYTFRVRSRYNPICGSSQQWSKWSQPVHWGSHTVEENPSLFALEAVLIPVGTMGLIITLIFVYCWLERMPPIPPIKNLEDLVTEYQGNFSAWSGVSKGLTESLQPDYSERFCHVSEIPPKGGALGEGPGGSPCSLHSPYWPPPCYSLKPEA

[4] = target: T2, mouse intermediate-affinity IL-2R (IL-2Rβ + IL-2Rγ) on murine splenocytes (CD8+ T cells and NK cells) (mouse) (UniProt P16297)
T2 sequence 1: T1 sequence 2
T2 sequence 2: T1 sequence 3

[5] = target: T2, mouse intermediate-affinity IL-2R (IL-2Rβ + IL-2Rγ) on murine splenocytes (CD8+ T cells and NK cells) (mouse); remark: listed apart in the source
[6] = tested on: Treg cells; assay: In vivo expansion of Treg cells (spleen immunophenotyping); design: species or system mice; details: 0.5, 1, or 2 mg/kg daily for 4 days SC; spleens day 3
Procedure: (§1) Mice were randomized into groups to receive one of the molecules listed above or PBS control. The treatment groups were as follows: PBS; Fc-IL2; Fc-IL2v; […]; Immunophenotyping was conducted on day 3 after the first treatment (day 0) by collecting spleens from each group.

[7] = tested on: NK cells; assay: In vivo expansion of NK cells (spleen immunophenotyping); design: species or system mice; details: 0.5, 1, or 2 mg/kg daily for 4 days SC; spleens day 3
Procedure: as §1

[8] = tested on: iTreg cells (IL-2 CD25/CD122/CD132 (α/β/γ) receptor complex); assay: pSTAT5 ELISA in iTreg cells; type: cell-based; details: pSTAT5 level 50% of maximum, InstantOne ELISA; read-out: EC50 iTreg cell
Procedure: (§2) The ability of the IL-2 variants to activate HH cells and iTregs was measured by monitoring relative changes in phosphorylated STAT5 (pSTAT5) in response to treatment of the cells with the IL-2 variants. pSTAT5 is known to be a downstream consequence of IL-2 signaling. HH T cells (ATCC CRL-2105) are a line of T cells that lack the alpha chain of the IL-2 receptor complex, but that contain the beta and gamma chains of the IL-2 receptor complex. iTreg cells were prepared from Fresh Leuko Paks obtained from […] Technologies (CAT #70500.1, Donor #D001003551).
(§3) For IL-2 activation, the HH cells and iTreg cells were plated at 2*10e6 cells/well in 50 ul serum-free RPMI 1640 media (Gibco), and allowed to rest at 37° C. After resting, cells were treated the IL-2 molecules listed above, and cells were then pelleted by centrifugation.
(§4) Following treatment with the IL-2 molecules, cell induction status was evaluated by the InstantOne ELISA pSTAT5 detection kit (Invitrogen).

[9] = target: T3, hIL2Rα (CD25) (Homo sapiens, UniProt P01589); assay: Biacore 8K surface plasmon resonance, hIL2Rα (CD25); type: binding; details: SPR, Table B
T3 construct: Purified soluble ligands were covalently coupled onto a CM5 sensor chip
T3 sequence (P01589 22-240 limits assumed): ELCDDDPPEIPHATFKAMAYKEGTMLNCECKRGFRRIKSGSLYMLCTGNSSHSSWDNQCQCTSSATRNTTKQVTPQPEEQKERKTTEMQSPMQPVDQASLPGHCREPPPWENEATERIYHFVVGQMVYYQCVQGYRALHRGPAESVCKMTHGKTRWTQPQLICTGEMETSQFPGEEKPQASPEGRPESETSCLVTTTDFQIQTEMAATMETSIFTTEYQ
Procedure: (§5) All experiments were performed on a Biacore 8K Surface Plasmon Resonance based biosensor (GE Healthcare). Purified soluble ligands were covalently coupled onto a CM5 sensor chip using an Amine Coupling Kit (GE Healthcare, Product #BR100050) following the manufacturer's recommendations. HBS-EP+ running buffer (10 mM HEPES pH 7.4, 0.15 M NaCl, 3 mM EDTA, 0.005% P-20), ranging in concentration was injected on all flow cells for 7 minutes at 20 μL/min. CD25 and CD122 was captured to surface densities of ˜20 and ˜500 RU, respectively. A non-derivatized flow cell was used as a reference surface. All flow cells were blocked with 100 mM ethylenediamine in 200 mM borate buffer pH 8.5 for 7 minutes at 10 μL/min.
Protein interaction experiments were performed using HBS-EP+(pH 7.4) at 25° C. on each spot. Following capture of antigens, analyte (1.23, 3.7, 11.1, 33.3, 100, 300, and 900 nM concentrations of IL-2 variants) was injected at a flow rate of 50 μL/min in all flow cells for 50 seconds. After each analyte injection, dissociation was monitored for 5 minutes, followed by regeneration of all flow cells with a 20 second injection of 10 mM glycine (pH 2.1). Buffer cycles were collected for each sample for double-referencing purposes (double-referencing as described in Myszka, D. G., Improving biosensor analysis. J. Mol. Recognit. 12, 279-284 (1999)). […]

[10] = tested on: CD8 T cells; assay: In vivo expansion of CD8 T cells (spleen immunophenotyping); design: species or system mice; details: 0.5, 1, or 2 mg/kg daily for 4 days SC; spleens day 3
Procedure: as §1

[11] = tested on: HH cells (IL-2 CD122/CD132 (β/γ) receptor complex); assay: pSTAT5 ELISA in HH cells; type: cell-based; details: for relative selectivity for HH cells vs iTreg cells among the tested molecules: Table C; for Selectivity HH/iTreg: higher value = greater selectivity for HH cells; for EC50: pSTAT5 level 50% of maximum, InstantOne ELISA, read-out: EC50 HH T cell
Procedure: as §2, §3, §4

[12] = target: T4, hILR2β (CD122) (Homo sapiens, UniProt P14784); assay: Biacore 8K surface plasmon resonance, hILR2β (CD122); type: binding; details: SPR; for Kd / hILR2β (CD122) kinetics ka / hILR2β (CD122) kinetics kd: HBS-EP+ pH 7.4, 25° C.; for binding affinity to human IL-2Rβ compared with the wild-type IL-2 Fc fusion: Table B
T4 sequence (P14784 27-240 limits assumed): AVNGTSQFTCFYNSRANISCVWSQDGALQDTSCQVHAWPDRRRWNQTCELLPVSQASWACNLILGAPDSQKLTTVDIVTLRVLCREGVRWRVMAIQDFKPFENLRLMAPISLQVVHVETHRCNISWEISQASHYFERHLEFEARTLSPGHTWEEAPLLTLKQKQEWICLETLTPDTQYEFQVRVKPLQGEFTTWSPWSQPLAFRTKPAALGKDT
Procedure: as §5
Protein interaction experiments were performed using HBS-EP+(pH 7.4) at 25° C. on each spot. Following capture of antigens, analyte (1.23, 3.7, 11.1, 33.3, 100, 300, and 900 nM concentrations of IL-2 variants) was injected at a flow rate of 50 μL/min in all flow cells for 50 seconds. After each analyte injection, dissociation was monitored for 5 minutes, followed by regeneration of all flow cells with a 20 second injection of 10 mM glycine (pH 2.1). Buffer cycles were collected for each sample for double-referencing purposes (double-referencing as described in Myszka, D. G., Improving biosensor analysis. J. Mol. Recognit. 12, 279-284 (1999)). For kinetic analysis, the double-referenced sensorgrams were fit globally to a simple 1:1 Langmuir with mass transport binding model using Biacore 8K Evaluation Software version 1.1.1.7442. For steady-state affinity analysis, the double-referenced equilibrium binding responses were fit with a 1:1 Langmuir steady-state model using Biacore 8K Evaluation Software version 1.1.1.7442.

[13] = tested on: B16F10 cells; assay: Tolerability and tumor growth inhibition in B16F10-bearing mice (Example 21); type: in vivo, mouse (C57/BL6); details: for surviving mice: 1 mg/kg SC on days 5, 6, 7, 8, groups of 15, day 12 post first treatment; for tolerability in mice compared with Fc-IL2 and Fc-IL2v: 1 mg/kg SC on days 5-8; for tumor growth inhibition in comparison to PBS control: B16F10 SC, 1 mg/kg SC on days 5-8, surviving mice
From the text: On day 0 of the experiment, female C57/BL6 mice were subcutaneously implanted in the upper thigh with approximately 500,000 B16F10 cells, which had been freshly thawed from a single, low-passage vial (of 1*10^7 cells) and cultured for the minimum time required to establish sufficient cells for implantation.
On day 5 of the experiment, mice were randomized into groups to receive one of the molecules listed above or control. […] Tumor volumes, body weight, and animal survival were tracked throughout the course of the experiment. Animals were sacrificed once tumors reached approximately 2000 mm^3 or 2 weeks post treatment.

Fc-IL2-R38N:L40T-T41N:K43T (from UniProt P01857-1) (Fc fusion)
EC50 (read off the curve), pSTAT5 MFI in NK cells of hPBMC [1]: 6 nM | EC50 (read off the curve), pSTAT5 MFI in Treg cells of hPBMC [2]: 20 nM

human IL-2 variant hIL-2v (F42A, Y45A, L72G), secreted by virus-infected HeLa cells (from UniProt P60568 21-153) (ligand)
EC50 (read off the curve), pSTAT5 MFI, murine splenocyte Treg cells [3]: 70 ng/mL | EC50 (read off the curve), pSTAT5 MFI, murine splenocyte CD8 T cells [4]: 100 ng/mL | EC50 (read off the curve), pSTAT5 MFI, murine splenocyte NK cells [5]: 20 ng/mL

B1: Fc-IL2-R38N:L40T-K43N:Y45T (protein)
chain: APTSSSTKKTQLQLEHLLLDLQMILNGINNYKNPKLTNMTTFNFTMPKKATELKHLQCLEEELKPLEEVLNLAQSKNFHLRPRDLISNINVIVLELKGSETTFMCEYADETATIVEFLNRWITFCQSIISTLT
proliferation of Treg cells in vivo [6]: minimal effects on the proliferation of Treg cells | expansion of NK cells in vivo [7]: promoted the expansion | EC50 [8]: 14.1 nM | binding to IL-2Rα [9]: do not have measurable binding to IL-2Rα | expansion of CD8 T cells in vivo [10]: promoted the expansion | relative selectivity for HH cells vs iTreg cells among the tested molecules [11]: greatest relative selectivity | Selectivity HH/iTreg [11]: 6.47 × 10^−2 | EC50 [11]: 218 nM | Kd [12]: 3.54 µM | hILR2β (CD122) kinetics ka [12]: 82600 M⁻¹ s⁻¹ | hILR2β (CD122) kinetics kd [12]: 0.292 s⁻¹ | binding affinity to human IL-2Rβ compared with the wild-type IL-2 Fc fusion [12]: retain similar binding affinity | surviving mice [13]: 11/15 | tolerability in mice compared with Fc-IL2 and Fc-IL2v [13]: better tolerated | tumor growth inhibition in comparison to PBS control [13]: significant tumor growth inhibition

B2: Fc-IL2-K43N:Y45T-L72N:Q74T (protein)
chain: B1 chain with N38R, T40L, L72N, Q74T
proliferation of Treg cells in vivo [6]: minimal effects on the proliferation of Treg cells | expansion of NK cells in vivo [7]: promoted the expansion | EC50 [8]: 4.49 nM | binding to IL-2Rα [9]: do not have measurable binding to IL-2Rα | expansion of CD8 T cells in vivo [10]: promoted the expansion | relative selectivity for HH cells vs iTreg cells among the tested molecules [11]: greatest relative selectivity | Selectivity HH/iTreg [11]: 6.89 × 10^−2 | EC50 [11]: 65.2 nM | Kd [12]: 2.62 µM | hILR2β (CD122) kinetics ka [12]: 89900 M⁻¹ s⁻¹ | hILR2β (CD122) kinetics kd [12]: 0.235 s⁻¹ | binding affinity to human IL-2Rβ compared with the wild-type IL-2 Fc fusion [12]: retain similar binding affinity | surviving mice [13]: 14/15 | tolerability in mice compared with Fc-IL2 and Fc-IL2v [13]: better tolerated | tumor growth inhibition in comparison to PBS control [13]: significant tumor growth inhibition
